Data from patent US20140242069.

Target: GST-KRT19 fusion protein (UniProt P08727)
Chain of UniProt P08727 (P08727 whole entry, the tested form may be a part): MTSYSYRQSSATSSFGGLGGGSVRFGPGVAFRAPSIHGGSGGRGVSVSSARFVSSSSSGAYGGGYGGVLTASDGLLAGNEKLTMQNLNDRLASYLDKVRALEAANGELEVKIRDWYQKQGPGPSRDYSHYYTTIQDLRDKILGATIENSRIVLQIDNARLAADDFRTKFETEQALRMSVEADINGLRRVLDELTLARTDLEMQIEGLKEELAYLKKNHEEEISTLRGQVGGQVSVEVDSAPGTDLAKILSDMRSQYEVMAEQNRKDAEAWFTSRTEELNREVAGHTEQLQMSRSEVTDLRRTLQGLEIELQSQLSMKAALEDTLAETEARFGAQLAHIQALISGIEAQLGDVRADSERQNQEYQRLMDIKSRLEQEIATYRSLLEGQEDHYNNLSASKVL

HA-Akt protein
in vitro kinase assay ([gamma-32P]ATP, SDS-PAGE, autoradiography): Akt mediated Ser35 phosphorylation of KRT
